Data from publication PMC2173848 (The Journal of Cell Biology, 2002).

Target: T1, GST-Sec34p (S. cerevisiae, UniProt P40094 1-801)
T1 sequence (looked up): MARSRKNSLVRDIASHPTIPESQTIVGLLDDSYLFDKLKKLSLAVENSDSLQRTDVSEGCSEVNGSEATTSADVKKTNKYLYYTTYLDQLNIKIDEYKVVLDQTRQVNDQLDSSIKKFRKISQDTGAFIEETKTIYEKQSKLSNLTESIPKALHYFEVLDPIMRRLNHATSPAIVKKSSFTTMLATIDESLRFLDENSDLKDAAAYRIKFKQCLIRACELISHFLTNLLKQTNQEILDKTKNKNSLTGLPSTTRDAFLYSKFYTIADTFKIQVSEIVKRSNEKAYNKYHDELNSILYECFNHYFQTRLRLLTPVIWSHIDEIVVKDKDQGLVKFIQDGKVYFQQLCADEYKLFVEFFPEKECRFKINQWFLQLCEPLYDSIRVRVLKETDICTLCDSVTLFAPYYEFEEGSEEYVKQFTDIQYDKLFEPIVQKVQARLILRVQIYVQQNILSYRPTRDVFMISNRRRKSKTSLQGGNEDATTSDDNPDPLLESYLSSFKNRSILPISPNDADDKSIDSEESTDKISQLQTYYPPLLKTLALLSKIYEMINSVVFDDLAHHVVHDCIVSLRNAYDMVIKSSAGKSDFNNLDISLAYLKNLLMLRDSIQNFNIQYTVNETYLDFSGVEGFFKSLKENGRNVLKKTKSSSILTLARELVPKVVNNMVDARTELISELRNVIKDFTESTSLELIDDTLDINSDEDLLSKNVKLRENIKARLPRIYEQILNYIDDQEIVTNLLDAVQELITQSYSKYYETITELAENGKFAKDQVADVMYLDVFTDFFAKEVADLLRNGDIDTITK
Experiment: pull-down

B1: Sec35p (natural protein, S. cerevisiae (endogenous in yeast), UniProt P53271 1-262, looked up)
chain: MDFLNDDELDLDLPVTAEISKELFATEIEKYRESETNGTDVDNFDVDRFLVQKNFHYLPLDSLIRDLSGLSQKMVQTLLEQIRSNYDDYLTFSNTYTDEENETLINLEKTQSDLQKFMTQLDHLIKDDISNTQEIIKDVLEYLKKLDEIYGSLRNHSQLTEALSLGKRLSKSLHEMCGIEPLEEEICSGLIEQLYKLITASRRILESCADSNSPYIHHLRNDYQDLLQEFQISLKILTEKCLENPSSLQNLSLTLVSIIKTA
In the case of B1, the “percent recovered on the beads” value is reported as ~3%.
